Key:
[1] = biological target: T1, full-length human DR6 on transfected cells (human, UniProt O75509 42-655); test: FACS on 293E cells transfected with full-length human DR6
T1 construct: also called Death Receptor-6; TNFRSF21
T1 sequence: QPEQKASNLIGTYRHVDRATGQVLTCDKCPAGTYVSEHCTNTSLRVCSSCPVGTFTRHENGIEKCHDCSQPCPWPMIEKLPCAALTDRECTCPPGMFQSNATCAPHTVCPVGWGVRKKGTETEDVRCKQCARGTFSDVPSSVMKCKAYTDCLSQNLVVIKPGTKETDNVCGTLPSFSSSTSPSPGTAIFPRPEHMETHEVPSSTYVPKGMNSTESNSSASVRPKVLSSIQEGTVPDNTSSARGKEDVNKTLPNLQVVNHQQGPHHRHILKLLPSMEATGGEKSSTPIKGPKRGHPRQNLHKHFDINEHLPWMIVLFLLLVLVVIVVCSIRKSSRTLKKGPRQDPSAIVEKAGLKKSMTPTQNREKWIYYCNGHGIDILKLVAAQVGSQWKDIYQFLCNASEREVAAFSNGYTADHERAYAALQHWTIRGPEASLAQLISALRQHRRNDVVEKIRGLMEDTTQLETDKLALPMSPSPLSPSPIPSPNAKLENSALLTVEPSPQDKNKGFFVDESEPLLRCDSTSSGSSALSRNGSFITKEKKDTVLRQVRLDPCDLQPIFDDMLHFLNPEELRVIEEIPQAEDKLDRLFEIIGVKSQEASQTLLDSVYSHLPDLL

[2] = biological target: T2, full-length mouse DR6 on transfected cells (mouse, UniProt Q9EPU5 42-655); test: FACS on 293T cells transfected with mouse DR6 (FIG. 13C)
T2 sequence: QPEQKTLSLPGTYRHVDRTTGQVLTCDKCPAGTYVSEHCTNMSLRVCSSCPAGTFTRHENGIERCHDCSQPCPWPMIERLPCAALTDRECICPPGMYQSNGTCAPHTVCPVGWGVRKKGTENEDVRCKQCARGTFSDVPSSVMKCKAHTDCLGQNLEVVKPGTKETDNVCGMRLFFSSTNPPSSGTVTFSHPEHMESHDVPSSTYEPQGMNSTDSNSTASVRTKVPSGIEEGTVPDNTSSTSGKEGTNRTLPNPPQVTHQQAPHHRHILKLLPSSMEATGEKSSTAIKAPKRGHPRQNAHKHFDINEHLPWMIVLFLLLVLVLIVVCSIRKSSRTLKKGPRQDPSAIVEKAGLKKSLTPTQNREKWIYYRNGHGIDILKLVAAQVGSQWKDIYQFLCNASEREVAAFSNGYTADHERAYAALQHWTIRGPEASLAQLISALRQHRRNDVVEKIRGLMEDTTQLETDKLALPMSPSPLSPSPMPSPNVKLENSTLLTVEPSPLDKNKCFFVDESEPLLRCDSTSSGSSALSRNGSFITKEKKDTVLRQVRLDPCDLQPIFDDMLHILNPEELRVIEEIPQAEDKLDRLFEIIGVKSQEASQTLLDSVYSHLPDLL
Description: (§1) Six million HEK293 cells were transfected with 10 ug of plasmid DNA, which encoded full length human, rat, or mouse DR6. Three days after transfection, approximately 50,000 cells in 200 μL of PBS, 1% BSA, 0.1% NaN3 (FACS buffer) were analyzed. Cells were pelleted and resuspended in 150 μl of serial dilutions of anti-DR6 antibodies in FACS buffer. Samples were incubated for 1 hour on ice with occasional agitation and then washed three times. Bound DR6 antibody was visualized with PE-labeled goat F(ab)₂ anti-human Fab (for Dyax Fabs) or anti-mouse IgG specific antibody (for monoclonal antibodies) (Jackson Labs).

[3] = biological target: T1, full-length human DR6 on transfected …; test: FACS on 293T cells transfected with human DR6 (FIG. 13B)
Description: as §1

[4] = biological target: T3, full-length rat DR6 on transfected cells (rat, UniProt D3ZF92 42-655); test: FACS on 293T cells transfected with rat DR6 (FIG. 13A)
T3 construct: whole, on cells
T3 sequence (looked up): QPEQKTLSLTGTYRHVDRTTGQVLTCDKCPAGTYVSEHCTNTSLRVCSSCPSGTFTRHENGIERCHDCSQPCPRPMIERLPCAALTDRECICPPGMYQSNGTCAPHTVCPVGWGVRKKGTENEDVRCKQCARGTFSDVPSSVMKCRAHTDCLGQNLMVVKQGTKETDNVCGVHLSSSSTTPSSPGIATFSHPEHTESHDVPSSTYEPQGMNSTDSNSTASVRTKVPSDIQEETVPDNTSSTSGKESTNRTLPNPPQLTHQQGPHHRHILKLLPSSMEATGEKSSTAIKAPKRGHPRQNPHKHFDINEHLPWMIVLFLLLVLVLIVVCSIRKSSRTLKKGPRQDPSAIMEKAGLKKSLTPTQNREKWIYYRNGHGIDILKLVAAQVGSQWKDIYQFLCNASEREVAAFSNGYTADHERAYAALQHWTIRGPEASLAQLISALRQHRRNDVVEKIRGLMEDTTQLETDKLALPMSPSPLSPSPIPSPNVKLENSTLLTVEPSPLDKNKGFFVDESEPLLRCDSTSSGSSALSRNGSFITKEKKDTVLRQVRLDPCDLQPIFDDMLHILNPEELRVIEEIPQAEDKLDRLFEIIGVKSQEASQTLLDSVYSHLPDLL
Description: as §1

[5] = biological target: T3, full-length rat DR6 on transfected cells; test: FACS on HEK293 cells transfected with full length rat DR6, serial dilutions of antibody
Description: as §1

[6] = biological target: T2, full-length mouse DR6 on transfected …; test: FACS on HEK293 cells transfected with full length mouse DR6, serial dilutions of antibody
Description: as §1

[7] = biological target: T1, full-length human DR6 on transfected …; test: FACS on HEK293 cells transfected with full length human DR6, serial dilutions of antibody
Description: as §1

| Binder | binding result [1] | further results |
| --- | --- | --- |
| M53-F04 (Fab, V domains shown, Human Fab from a phage display library) VH: EVQLLESGGGLVQPGGSLRLSCAASGFTFSEYTMHWVRQAPGKGLEWVSVISSSGGRTVYADSVKGRFTISRDNSKNTLYLQMNSLRAEDTAVYYCARDLSNYMDYWGQGTLVTVSS VL: DIQMTQSPATLSLSPGERATLSCRASQTVSNYLAWYQQKPGQAPRLLIYDASNRATGIPARFSGSGSGTDFTLTISSLEPEDFAVYYCQQRSKWLSFGGGTKVEIK | binds |  |
| M63-E10 (Fab, V domains shown, Human Fab from a phage display library) VH: EVQLLESGGGLVQPGGSLRLSCAASGFTFSQYKMSWVRQAPGKGLEWVSSISSSGGTNYADSVKGRFTISRDNSKNTLYLQMNSLRAEDTAMYYCARRNYGDRPYWYFDLWGRGTLVTVSS VL: DIQMTQSPSTLSASVGDRVTITCRASQTISRWLAWYQHKPGKAPKLLIYKTSNLESGVPSRFSGSGSGTEFTLTISSLQPDDFATYYCQQYKSYSITFGPGTKVDIK | binds |  |
| M62-B02 (Fab, V domains shown, Human Fab from a phage display library) VH: EVQLLESGGGLVQPGGSLRLSCAASGFTFSMYIMNWVRQAPGKGLEWVSSIVSSGGWTFYADSVKGRFTISRDNSKNTLYLQMNSLRAEDTAVYYCARGHYGMDVWGQGTTVTVSS VL: not shown | binds |  |
| M72-F03 (Fab, V domains shown, Human Fab from a phage display library) VH: EVQLLESGGGLVQPGGSLRLSCAASGFTFSQYMMSWVRQAPGKGLEWVSVIYPSGGSTHYADSVKGRFTISRDNSKNTLYLQMNSLRAEDTAVYYCARGHYGMDVWGQGTTVTVSS VL: DIQMTQSPDSLAVSLGERATINCKSSQSVLYSSNNKNYLAWYQHKAGQPPKLLIHWASSRASGVPDRFSGSGSGTDFTLTISSLQAEDVAVYYCQQFYSLPLTFGGGTKVEIR | binds |  |
| M53-E04 (Fab, V domains shown, Human Fab from a phage display library) VH: EVQLLESGGGLVQPGGSLRLSCAASGFTFSNYEMSWVRQAPGKGLEWVSSIYSSGGETLYADSVKGRFTISRDNSKNTLYLQMNSLRAEDTAVYYCARDGAADYWGQGTLVTVSS VL: QSELTQPPSASGTPGQWVTISCSGSTSNIGNNYVYWYQQLPGTAPKLLIYTNNQRPSGVPDRFSGSKSGTSASLAISGLRSEDEADYYCATWDDSLYAPVFGGGTKVTVL | binds |  |
| M73-C04 (Fab, V domains shown, Human Fab from a phage display library) VH: EVQLLESGGGLVQPGGSLRLSCAASGFTFSPYAMVWVRQAPGKGLEWVSSISPSGGGTGYADSVKGRFTISRDNSKNTLYLQMNSLRAEDTAVYYCAREGWNYYYGMDVWGQGTTVTVSS VL: DIQMTQSPATLSLSPGERATLSCRASQSVSSYLAWYQQKPGQAPRLLIYDASNRATGIPARFSGSGSGTDFTLAISSLQPEDSATYYCLQDFIYPYTFGQGTKLEIR | binds |  |
| M67-G02 (Fab, V domains shown, Human Fab from a phage display library) VH: EVQLLESGGGLVQPGGSLRLSCAASGFTFSRYSMQWVRQAPGKGLEWVSVISPSGGSTMYADSVKGRFTISRDNSKNTLYLQMNSLRAEDTAVYYCARESYSSSWYSGYYYYYGMDVWGQGTTVTVSS VL: DIQMTQSPASLSASVGDRVTITCRASQTIAGYLNWYQQTPGKAPNLLIYDASRLQSGVPSRFSGSGSGTDFTLSISGLQPEDFGTYYCQQSYTIPLTFGGGTKVEIK | binds |  |
| M51-H09 (Fab, V domains shown, Human Fab from a phage display library) VH: EVQLLESGGGLVQPGGSLRLSCAASGFTFSPYSMTWVRQAPGKGLEWVSSIVPSGGKTWYADSVKGRFTISRDNSKNTLYLQMNSLRAEDTAVYYCARTNLSYFDYWGQGTLVTVSS VL: QSELTQPPSASGSPGQSVTISCTGTSNDVGSYNYISWFQQHPGKAPKLMIYEVNKRPSGVPDRFSGSKSDNTASLTVSGLQAEDEADYYCTSYAGSHKWVFGGGTKLTVL | binds |  |
| 1P2F2.1 (antibody, V domains shown, Murine hybridoma monoclonal antibody; subgroup II(A) heavy chain, subgroup V kappa light chain) VH: QVQLQQSGPEVARPGASVKLSCKASGYTFTDYYLNWVKQRTGQGLEWIGEIYPGNNHTYYNEKFKGKATLTADNSSSTAYLQFSSLTSEDSAVYFCTRGVIKWGQGTLVTVSV VL: DILMTQSPSSMSVSLGDTVSITCHASQGIRNSIGWLQQKPGKSFKGLIYHATTLEDGVPSRFTGSGSGADFSLTISSLESEDFADYYCVQYAQFPYTFGGGTKLEIK |  | binding result [2]: binds; binding result [3]: binds; binding result [4]: binds |
| 1P5D10.2 (antibody, V domains shown, Murine hybridoma monoclonal antibody; subgroup III(D) heavy chain, subgroup VI kappa light chain) VH: EVQLVESGGGLVKPGGSLKLSCAASGFTFSDYYMYWVRQTPEKRLEWVATISDGGLYTYYQDSVKGRFTISRDNAKNNLYLQMSSLKSEDTAMYYCAREDDYDGDFYTMDYWGQGTSVTVSS VL: QIVLTQSPAIMSASPGEKVTITCSASSSVSYMHWFQQKPGTSPKLWIYSTSNLASGVPARFSGSGSGTSYSLTISRMEAEDAATYYCQQRSSYPLTFGAGTKLELK |  | binding result [5]: binds; binding result [6]: binds; binding result [7]: binds |
| M50-H01 (Fab, V domains shown, Human Fab from a phage display library) VH: EVQLLESGGGLVQPGGSLRLSCAASGFTFSDYPMMWVRQAPGKGLEWVSRISPSGGHTIYADSVKGRFTISRDNSKNTLYLQMNSLRAEDTAVYYCAKDWHGGGAFDIWGQGTMVTVSS VL: DIQMTQSPSSVSASVGDRVTITCRASQGIRSWLAWYQQKPGKAPKLLIYDASTLQSGVPSRFRGGGSGTDFTLTISSLQPEDFATYYCQQSYSTPLTFGGGTKVEIK | binds |  |
| M66-B03 (Fab, V domains shown) VH: EVQLLESGGGLVQPGGSLRLSCAASGFTFSPYWMSWVRQAPGKGLEWVSVIYPSGGHTYYADSVKGRFTISRDNSKNTLYLQMNSLRAEDTAVYYCARPGFGAAFDYWGPGTLVTVSS VL: DIQMTQSPSSVSASVGDRVTITCRASQGISSWLAWYQQKPGKAPKLLIYAASSLQSGVPSRFSGSGSGTDFTLTISSLQPEDFATYYCQQANSFPLTFGGGTKVEIK | binds |  |
